Results from PMC10684670.

B1: rhB7-H6-hFc recombinant protein, wild type [modified: N-linked glycans (removed on the plate by PNGase F in assay a2); N-linked glycans (removed on the plate by PNGase F in assay a2)] [human] / rhNKp30-his protein [human] (parent)
chain 1: LWVSQPPEIRTLEGSSAFLPCSFNASQGRLAIGSVTWFRDEVVPGKEVRNGTPEFRGRLAPLASSRFLHDHQAELHIRDVRGHDASIYVCRVEVLGLGVGTGNGTRLVVEKEHPQLG
chain 2: DLKVEMMAGGTQITPLNDNVTIFCNIFYSQPLNITSMGITWFWKSLTFDKEVKVFEFFGDHQEAFRPGAIVSPWRLKSGDASLRLPGIQLEEAGEYRCEVVVTPLKAQGTVQLEVVASPASRLLLDQVGMKENEDKYMCESSGFYPEAINITWEKQTQKFPHPIEISEDVITGPTIKNMDGTFNVTSCLKLNSSQEDPGTVYQCVVRHASLHTPLRSNFTLTAARHSLSETEKTDNFS
B2: B7-H6, wild type, stably expressed on B7-H6 knockout 293T cells [modified: N-linked glycans at N43, N57, N174, N208, N216 and N242; N-linked glycans at N43, N57, N174, N208, N216 and N242] [human] / rhNKp30-his protein [human] (parent)
chain 1: B1 chain 1
chain 2: DLKVEMMAGGTQITPLNDNVTIFCNIFYSQPLNITSMGITWFWKSLTFDKEVKVFEFFGDHQEAFRPGAIVSPWRLKSGDASLRLPGIQLEEAGEYRCEVVVTPLKAQGTVQLEVVASPASRLLLDQVGMKENEDKYMCESSGFYPEAINITWEKQTQKFPHPIEISEDVITGPTIKNMDGTFNVTSCLKLNSSQEDPGTVYQCVVRHASLHTPLRSNFTLTAARHSLSETEKTDNFSIHWWPISFIGVGLVLLIVLIPWKKICNKSSSAYTPLKCILKHWNSFDTQTLKKEHLIFFCTRAWPSYQLQDGEAWPPEGSVNINTIQQLDVFCRQEGKWSEVPYVQAFFALRDNPDLCQCCRIDPALLTVTSGKSIDDNSTKSEKQTPREHSDAVPDAPILPVSPIWEPPPATTSTTPVLSSQPPTLLLPLQ

Variants of: B1
Test: ELISA
Conditions: with rhNKp30-his protein [human]; no PNGase F pretreatment; read at the highest NKp30 conc. tested, 2 (unit not printed in this panel); parent: 1.7; read off a plot

Row | Variant | response [OD]
1 | chain 2 DLKVEMMAGGTQITPLNDNVTIFCNIFYSQPLQITSMGITWFWKSLTFDKEVKVFEFFGDHQEAFRPGAIVSPWRLKSGDASLRLPGIQLEEAGEYRCEVVVTPLKAQGTVQLEVVASPASRLLLDQVGMKENEDKYMCESSGFYPEAINITWEKQTQKFPHPIEISEDVITGPTIKNMDGTFNVTSCLKLNSSQEDPGTVYQCVVRHASLHTPLRSNFTLTAARHSLSETEKTDNFS [chain 2 N33Q] | 1.5

Same assay, conditions: with rhNKp30-his protein [human]; pretreated with denatured PNGase F; read at the highest NKp30 conc. tested, 2 (unit not printed in this panel); read off a plot

Row | Variant | response [OD]
2 | chain 2 DLKVEMMAGGTQITPLNDNVTIFCNIFYSQPLQITSMGITWFWKSLTFDKEVKVFEFFGDHQEAFRPGAIVSPWRLKSGDASLRLPGIQLEEAGEYRCEVVVTPLKAQGTVQLEVVASPASRLLLDQVGMKENEDKYMCESSGFYPEAINITWEKQTQKFPHPIEISEDVITGPTIKNMDGTFNVTSCLKLNSSQEDPGTVYQCVVRHASLHTPLRSNFTLTAARHSLSETEKTDNFS [chain 2 N33Q] | 1.4

Variants of: B2
Test: flow cytometry on cells
Conditions: with rhNKp30-his protein [human]; 293T cells stably expressing B7-H6, stained with his-tagged NKp30; parent: 1; read off a plot

Row | Variant | ratio to parent
3 | chain 2 DLKVEMMAGGTQITPLNDQVTIFCNIFYSQPLNITSMGITWFWKSLTFDKEVKVFEFFGDHQEAFRPGAIVSPWRLKSGDASLRLPGIQLEEAGEYRCEVVVTPLKAQGTVQLEVVASPASRLLLDQVGMKENEDKYMCESSGFYPEAINITWEKQTQKFPHPIEISEDVITGPTIKNMDGTFNVTSCLKLNSSQEDPGTVYQCVVRHASLHTPLRSNFTLTAARHSLSETEKTDNFSIHWWPISFIGVGLVLLIVLIPWKKICNKSSSAYTPLKCILKHWNSFDTQTLKKEHLIFFCTRAWPSYQLQDGEAWPPEGSVNINTIQQLDVFCRQEGKWSEVPYVQAFFALRDNPDLCQCCRIDPALLTVTSGKSIDDNSTKSEKQTPREHSDAVPDAPILPVSPIWEPPPATTSTTPVLSSQPPTLLLPLQ [chain 2 N19Q] | 0.14
4 | chain 2 DLKVEMMAGGTQITPLNDNVTIFCNIFYSQPLNITSMGITWFWKSLTFDKEVKVFEFFGDHQEAFRPGAIVSPWRLKSGDASLRLPGIQLEEAGEYRCEVVVTPLKAQGTVQLEVVASPASRLLLDQVGMKENEDKYMCESSGFYPEAIQITWEKQTQKFPHPIEISEDVITGPTIKNMDGTFNVTSCLKLNSSQEDPGTVYQCVVRHASLHTPLRSNFTLTAARHSLSETEKTDNFSIHWWPISFIGVGLVLLIVLIPWKKICNKSSSAYTPLKCILKHWNSFDTQTLKKEHLIFFCTRAWPSYQLQDGEAWPPEGSVNINTIQQLDVFCRQEGKWSEVPYVQAFFALRDNPDLCQCCRIDPALLTVTSGKSIDDNSTKSEKQTPREHSDAVPDAPILPVSPIWEPPPATTSTTPVLSSQPPTLLLPLQ [chain 2 N150Q] | 0.8
5 | chain 2 DLKVEMMAGGTQITPLNDNVTIFCNIFYSQPLNITSMGITWFWKSLTFDKEVKVFEFFGDHQEAFRPGAIVSPWRLKSGDASLRLPGIQLEEAGEYRCEVVVTPLKAQGTVQLEVVASPASRLLLDQVGMKENEDKYMCESSGFYPEAINITWEKQTQKFPHPIEISEDVITGPTIKNMDGTFQVTSCLKLNSSQEDPGTVYQCVVRHASLHTPLRSNFTLTAARHSLSETEKTDNFSIHWWPISFIGVGLVLLIVLIPWKKICNKSSSAYTPLKCILKHWNSFDTQTLKKEHLIFFCTRAWPSYQLQDGEAWPPEGSVNINTIQQLDVFCRQEGKWSEVPYVQAFFALRDNPDLCQCCRIDPALLTVTSGKSIDDNSTKSEKQTPREHSDAVPDAPILPVSPIWEPPPATTSTTPVLSSQPPTLLLPLQ [chain 2 N184Q] | 0.22
6 | chain 2 DLKVEMMAGGTQITPLNDNVTIFCNIFYSQPLQITSMGITWFWKSLTFDKEVKVFEFFGDHQEAFRPGAIVSPWRLKSGDASLRLPGIQLEEAGEYRCEVVVTPLKAQGTVQLEVVASPASRLLLDQVGMKENEDKYMCESSGFYPEAINITWEKQTQKFPHPIEISEDVITGPTIKNMDGTFNVTSCLKLNSSQEDPGTVYQCVVRHASLHTPLRSNFTLTAARHSLSETEKTDNFSIHWWPISFIGVGLVLLIVLIPWKKICNKSSSAYTPLKCILKHWNSFDTQTLKKEHLIFFCTRAWPSYQLQDGEAWPPEGSVNINTIQQLDVFCRQEGKWSEVPYVQAFFALRDNPDLCQCCRIDPALLTVTSGKSIDDNSTKSEKQTPREHSDAVPDAPILPVSPIWEPPPATTSTTPVLSSQPPTLLLPLQ [chain 2 N33Q] | 0.57
7 | chain 2 DLKVEMMAGGTQITPLNDNVTIFCNIFYSQPLNITSMGITWFWKSLTFDKEVKVFEFFGDHQEAFRPGAIVSPWRLKSGDASLRLPGIQLEEAGEYRCEVVVTPLKAQGTVQLEVVASPASRLLLDQVGMKENEDKYMCESSGFYPEAINITWEKQTQKFPHPIEISEDVITGPTIKNMDGTFNVTSCLKLNSSQEDPGTVYQCVVRHASLHTPLRSQFTLTAARHSLSETEKTDNFSIHWWPISFIGVGLVLLIVLIPWKKICNKSSSAYTPLKCILKHWNSFDTQTLKKEHLIFFCTRAWPSYQLQDGEAWPPEGSVNINTIQQLDVFCRQEGKWSEVPYVQAFFALRDNPDLCQCCRIDPALLTVTSGKSIDDNSTKSEKQTPREHSDAVPDAPILPVSPIWEPPPATTSTTPVLSSQPPTLLLPLQ [chain 2 N218Q] | 0.86
8 | chain 2 DLKVEMMAGGTQITPLNDNVTIFCNIFYSQPLNITSMGITWFWKSLTFDKEVKVFEFFGDHQEAFRPGAIVSPWRLKSGDASLRLPGIQLEEAGEYRCEVVVTPLKAQGTVQLEVVASPASRLLLDQVGMKENEDKYMCESSGFYPEAINITWEKQTQKFPHPIEISEDVITGPTIKNMDGTFNVTSCLKLQSSQEDPGTVYQCVVRHASLHTPLRSNFTLTAARHSLSETEKTDNFSIHWWPISFIGVGLVLLIVLIPWKKICNKSSSAYTPLKCILKHWNSFDTQTLKKEHLIFFCTRAWPSYQLQDGEAWPPEGSVNINTIQQLDVFCRQEGKWSEVPYVQAFFALRDNPDLCQCCRIDPALLTVTSGKSIDDNSTKSEKQTPREHSDAVPDAPILPVSPIWEPPPATTSTTPVLSSQPPTLLLPLQ [chain 2 N192Q] | 0.42
